The values below come from publication PMC4010543.

Series [1] is described as follows: TEPC-15 immunoblot, whole cell lysates. The note with it: control: wild-type pgl (disaccharide Ac-Gal-diNAcBac), same pilE copy number.
Series [2] can be described thus: TEPC-15 immunoblot, pilF mutant lysates. The following applies: glycan gained; control: pglC pilF (no glycan).

B1: PilE: pglC null (protein)
parent chain: MNTLQKGFTLIELMIVIAIVGILAAVALPAYQDYTARAQVSEAILLAEGQKSAVTEYYLNHGKWPENNTSAGVASPPSDIKGKYVKEVEVKNGVVTATMLSSGVNNEIKGKKLSLWARRENGSVKWFCGQPVTRTDDDTVADAKDGKEIDTKHLPSTCRDNFDAK
Take B1: in series [1] (glycan lost), the “other: phosphocholine modification of PilE” value (“other … of PilE” for short) is “increases”.

B2: PilE: pglE ON (trisaccharide) in 2xpilE and 3xpilE (protein)
parent chain: B1 parent chain
With B2, in series [1] (glycan changed form), the “other … of PilE” value is given as “decreases”.

B3: PilE: pglE ON pilF (trisaccharide) (protein)
parent chain: B1 parent chain
In the case of B3, the “other … of PilE” value in series [2] was “no change”.
